Source: the nanobody polyreactivity screen of Harvey et al. (2022)

Assay: yeast display, Sf9 membrane polyspecificity reagent, FACS + sequencing; frameworks hold sequencing errors
Procedure, shortened: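 Synthetic nanobody libraries on Saccharomyces cerevisiae BJ5465 were galactose-induced for 36–48 hours, stained 1 hour at 4 °C with 10% biotinylated, detergent-solubilized Sf9 membrane reagent and enriched on streptavidin microbeads. FACS then separated cells into low and high (top ~1%) gates by anti-HA (expression) and streptavidin (reagent binding) fluorescence. Genes were colony-PCR amplified, MiSeq 2 × 250 sequenced and CDR-length filtered. A clone's polyreactivity label is that of its gate of origin.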

Sequence	polyreactivity (PSR sort gate)
QVQLVDSGGGLVQAGGSLRLSCAASGFIFFQNAMGWYRQSPGKERELVAAISRRGGSTYYADSVKGRFTISRDNAKNTVYLQRNSLTPDDTAGYYCAARSRCDLASRYTGDYWGQGTQLTVSS	low polyreactivity
QVQLVDSGGGLVQAGGSLRLSCAASGFIFTQYAMGWYRQAPGQDRELVAAISRSGSSTYYADSVKGRFTISRDNAKNTVSLQMNSLKPEDTAVYYCAAKGSRGTRYWGEDYWGQGTQVTVSS	low polyreactivity
QVQLVDSGGGLVQAGGSLRLSCAASGFIFVRYAMGWYRQAPGKERELVAAISWSGARTYYADSVKGRFTISRDNAKNTVYLQFNSLKPEDSAVYYCAADSLDAGYYGYDYWGQGTQVGVSS	high polyreactivity
QVQLVDSGGGLVQAGGSLRLSCAASGFTFRPYAMGWYRQAPGKERELVATITGRGGSTYYADSVKGRFTISRDTAKNTVYLQMNSLKPEDTAVYYCASRARYSPAPYDYWGQGTQVTVSS	high polyreactivity
QVQLVDSGGGLVQAGGSLRLSCAASGFTFVYYFMGWYRQAPGKERELVAAITRSCRTYYADSVKGRFTISRDNAKNTVYLQMNSLKPEDTAVYYCARGYGYADHAMGYWGQGTQVTVSS	high polyreactivity
QVQLVDSGGGLVQAGGSLRLSCAASGFTFYLYTMGWYRPAPGKERQLVATITSDGGTNYADSVKGRFTISRDNAKNTVYLQMNSLKPEDTAVYYCNAASRRGSRKQAKYDYWGQGTQVTVSS	low polyreactivity
QVQLVDSGGGLVQAGGSLRLSCAASGFTFYRYAMGWYRQAPGKERELVAAITGRAGRTYYADSVKGRFTISRDNAKNTVYLQMNSLKPEDTAVYYCSGYRYYGGYGYWGQGTQVTVSS	high polyreactivity
QVQLVDSGGGLVQAGGSLRLSCAASGFTIKYYAMVWYRQAPGKERELVATITSGARTNYADSVKGRFTISRDNAKNTVYLQMNSLKPEDTAVYYCATPYSAYWQNERDYWGQGTQVTVSS	high polyreactivity
QVQLVDSGGGLVQAGGSLRLSCAASGGTFKYYAMGWYRQAPGKERELVAAITWSGGSTYYADSVKGRFTISRDNAKNTVYLQMNSLKPEDTAVYYCNAAYSQIRFNYWGQGTQVTVSS	high polyreactivity
QVQLVDSGGGLVQAGGSLRLSCAASGGTFQGNAMGWYRQAPGKEREFVATITRGGGSKYYADSVKGRFTISRDNAKNTVYLQMNSLKPEDTAVYFCNAYLVSRYPGDYWGQGTQVTVSP	high polyreactivity
QVQLVDSGGGLVQAGGSLRLSCAASGGTLRYYAMGWYRQAPGTEREFVASISRSGGSTYYADSVKGRFTISRDTAKYTVYLQMNSLKPVDTAVYYCADVKSSGSPRARYGYWGQGTQVTLSS	high polyreactivity
QVQLVDSGGGLVQAGGSLRLSCAASGITFSGYDMGWYRQAPWKERELVADITISTGSTYYADSVKGRYTISRDNAKNSVYLQMNSLKPEDTAVYYCAADWTGGFYTWYVIPYDYWGQGTQVTVSS	low polyreactivity
QVQLVDSGGGLVQAGGSLRLSCAASGITFTRYAMGWYRQAPGKERELVAAISSGGRTNYADSVKGRFTISRDNAKNTVYLQMNSLKREDTAVYYCNALYRARWGLGTQVTVSS	high polyreactivity
QVQLVDSGGGLVQAGGSLRLSCAASGLIFLYYAMGWYRQAPGKERELVAAISSSGSTYYADSVKGRFTISRDNAKNTVYLQMNSLKPEDTAVYYCAARWTRNYGMNYWGQGTQVTVSS	high polyreactivity
QVQLVDSGGGLVQAGGSLRLSCAASGLTFYSNAMGWYRQAPGKEREFVASITRRTGITFYAVSVKGRFTISRDNAKNTVYLQMNSLKPYDTAVYYCATRGGYPKGYGYLAFNYWGQGTQVTVSS	high polyreactivity
QVQLVDSGGGLVQAGGSLRLSCAASGNIFVGNAMGWYRQAPGKERELVAAIRRSGGTTYYADSVKGRFTISRDNAKNTVYLQMNSLKPEDTAVYYCAASRPYQGDYWGQGTQVTVSS	low polyreactivity
QVQLVDSGGGLVQAGGSLRLSCAASGRIFRYNTMGWYRQAPGKEREFVAAITQRGVNTYYADSVKGRFTISRDNAKNTVYLQMNRLKPEDTAVYYCNAKRYSYWIYRAYDYWGQGTQVTVSS	low polyreactivity
QVQLVDSGGGLVQAGGSLRLSCAASGRIFRYYAMGWSRQAPGKERELVARITNGAITNYADSVKGRFTISRDNAKNTLYLQRNSLKPEETAVYYCAATQNLYRCGYWGQGTQVTVSS	high polyreactivity
QVQLVDSGGGLVQAGGSLRLSCAASGRIFWHNAMGWYRQAPGKERELVAAITGGGSTYYADSVKGRFTMSRVNAKNTVYLQKNSLIPEDTAVYYCATLGSLRYYWPGYDYWGQGTQVTVSS	low polyreactivity
QVQLVDSGGGLVQAGGSLRLSCAASGRIFYAYDMGWYRQAPGKERELVADITSSGSTNYADSVKGRFTISRDNAKNTVYLQMNSLKPEDTAVYYCNTEPSGYESGYWGQGTQVTVSS	low polyreactivity
QVQLVDSGGGLVQAGGSLRLSCAASGRIFYFNAMGWYREAPGKERELVAAISKSGGSTYYADSVKGRFTISRDNAKNTVYLQMNSLKPEDTAVYYCAAGFWYYSYPTLYEYGYWGQGTQVTVSS	low polyreactivity
